Where two headings read alike, the source gives them in different places.
T1: succinyl-AAPF-p-nitroanilide
T1 sequence: AAPF

T2: suc-AAPR-pNA
T2 sequence: AAPR

T3: suc-AAPE-pNA
T3 sequence: AAPE

T4: suc-AAPA-pNA
T4 sequence: AAPA

T5: succinyl-AAPF-p-nitroanilide
T5 chain: AAPF

T6: suc-AAPR-pNA
T6 chain: AAPR

T7: suc-AAPE-pNA
T7 chain: AAPE

T8: suc-AAPA-pNA
T8 chain: AAPA


Experiments:
[1] = test system: T1, succinyl-AAPF-p-nitroanilide
suc-AAPR-pNA [2] = test system: T2, suc-AAPR-pNA
suc-AAPE-pNA [3] = test system: T3, suc-AAPE-pNA
suc-AAPA-pNA [4] = test system: T4, suc-AAPA-pNA
[5] = molecular target: T5, succinyl-AAPF-p-nitroanilide
suc-AAPR-pNA [6] = molecular target: T6, suc-AAPR-pNA
suc-AAPE-pNA [7] = molecular target: T7, suc-AAPE-pNA
suc-AAPA-pNA [8] = molecular target: T8, suc-AAPA-pNA

Molecule	KM [1]	also measured
SBL S156C-S-benzyl	KM 0.59±0.05 mM	–
SBL L217C-d of Example 2 (2,2-bis(aminomethyl)-3-aminopropyl side chain)	2900 µM	–
SBL N62C-d of Example 2 (2,2-bis(aminomethyl)-3-aminopropyl side chain)	1170 µM	–
SBL S166C-S-CH2(CH2)2CH2COO-	1520 µM	kcat/KM [1]: 31000 M⁻¹ s⁻¹; KM (suc-AAPR-pNA [2]): 8200 µM; kcat/KM (suc-AAPR-pNA [2]): 41 M⁻¹ s⁻¹; ΔΔG‡T = RT ln[(kcat/KM)WT/(kcat/KM)CMM] (suc-AAPR-pNA [2]): S166C-S-h -0.37
SBL S166C-S-CH2C6H4-3,5-(COO-)2	1600 µM	kcat/KM [1]: 29000 M⁻¹ s⁻¹; KM (suc-AAPR-pNA [2]): 5500 µM; kcat/KM (suc-AAPR-pNA [2]): 120 M⁻¹ s⁻¹; ΔΔG‡T = RT ln[(kcat/KM)WT/(kcat/KM)CMM] (suc-AAPR-pNA [2]): S166C-S-d -1.00
SBL L217C (unmodified cysteine mutant, R = H)	800 µM	–
SBL S166C-S-CH2CH2C(CH3)(COO-)2	2260 µM	kcat/KM [1]: 30000 M⁻¹ s⁻¹; KM (suc-AAPR-pNA [2]): 5300 µM; kcat/KM (suc-AAPR-pNA [2]): 80 M⁻¹ s⁻¹; ΔΔG‡T = RT ln[(kcat/KM)WT/(kcat/KM)CMM] (suc-AAPR-pNA [2]): S166C-S-1-0.76
SBL S166C (unmodified cysteine mutant, R = H)	500 µM	–
SBL N62C-d of Example 1 (3,3-dicarboxybutyl side chain)	1470 µM	–
SBL S166C-S-CH2CH2NH3+	680 µM	KM (suc-AAPE-pNA [3]): 1900 µM; kcat/KM (suc-AAPE-pNA [3]): 7600 M⁻¹ s⁻¹; kcat/KM substrate screen (FIG. 10) (suc-AAPA-pNA [4]): the substrate screen (FIG. 10) shows that suc-AAPA-pNA and suc-AAPR-pNA are poorer substrates; kcat/KM [1]: 74000 M⁻¹ s⁻¹; kcat/KM substrate screen (FIG. 10) (suc-AAPR-pNA [2]): the substrate screen (FIG. 10) shows that suc-AAPA-pNA and suc-AAPR-pNA are poorer substrates
SBL L217C-b of Example 2 (2-(trimethylammonium)ethyl side chain)	690 µM	–
SBL S156C-b of Example 1 (4-carboxybutyl side chain)	1080 µM	–
SBL S156C (unmodified cysteine mutant, R = H)	850 µM	–
SBL S166C-d of Example 2 (2,2-bis(aminomethyl)-3-aminopropyl side chain)	1160 µM	–
SBL S156C-e of Example 1 (3,3,4-tricarboxybutyl side chain)	1870 µM	–
SBL N62C-b of Example 1 (4-carboxybutyl side chain)	1010 µM	–
SBL L217C-c of Example 2 (5,5-bis(aminomethyl)-3-oxo-hexyl side chain)	2940 µM	–
SBL S166C-S-CH2CH2C(COO-)3	2460 µM	kcat/KM [1]: 31000 M⁻¹ s⁻¹; KM (suc-AAPR-pNA [2]): 5200 µM; kcat/KM (suc-AAPR-pNA [2]): 200 M⁻¹ s⁻¹; ΔΔG‡T = RT ln[(kcat/KM)WT/(kcat/KM)CMM] (suc-AAPR-pNA [2]): S166C-S-j -1.31
SBL S166C-c of Example 2 (5,5-bis(aminomethyl)-3-oxo-hexyl side chain)	1270 µM	–
SBL S166C-S-CH2CH2SO3-	1340 µM	kcat/KM [1]: 19000 M⁻¹ s⁻¹; KM (suc-AAPR-pNA [2]): 3400 µM; kcat/KM (suc-AAPR-pNA [2]): 50 M⁻¹ s⁻¹; ΔΔG‡T = RT ln[(kcat/KM)WT/(kcat/KM)CMM] (suc-AAPR-pNA [2]): S166C-S-b -0.49
SBL N62C-c of Example 2 (5,5-bis(aminomethyl)-3-oxo-hexyl side chain)	1060 µM	–
SBL L217C-b of Example 1 (4-carboxybutyl side chain)	1030 µM	–
SBL N62C-S-ethyl	KM 0.55±0.04 mM	–
SBL S156C-a of Example 2 (aminoethyl side chain)	730 µM	–
SBL S166C-S-ethyl	KM0.76±0.08 mM	–

Molecule	KM [1]	also measured
SBL N62C (unmodified cysteine mutant, R = H)	1900 µM	–
SBL S166C-(CH2)2NMe3+	1420 µM	–
SBL S156C-d of Example 2 (2,2-bis(aminomethyl)-3-aminopropyl side chain)	810 µM	–
SBL S166C-S-CH2-c-C6H11	700 µM	KM (suc-AAPA-pNA [4]): 1900 µM; kcat/KM (suc-AAPA-pNA [4]): 14800 M⁻¹ s⁻¹; kcat/KM [1]: 6900 M⁻¹ s⁻¹
SBL N62C-c of Example 1 (3,5-dicarboxybenzyl side chain)	1000 µM	–
SBL N62C-b of Example 2 (2-(trimethylammonium)ethyl side chain)	860 µM	–
SBL N62C-S-n-pentyl	KM 0.75±0.05 mM	–
SBL L217C-e of Example 1 (3,3,4-tricarboxybutyl side chain)	1480 µM	–
SBL S156C-a of Example 1 (sulfonatoethyl side chain)	1200 µM	–
SBL L217C-S-n-pentyl	KM 0.52±0.05 mM	–
SBL L217C-c of Example 1 (3,5-dicarboxybenzyl side chain)	810 µM	–
SBL L217C-d of Example 1 (3,3-dicarboxybutyl side chain)	1650 µM	–
SBL N62C-S-benzyl	KM 0.34±0.03 mM	–
SBL L217C-a of Example 2 (aminoethyl side chain)	640 µM	–
SBL L217C-a of Example 1 (sulfonatoethyl side chain)	1800 µM	–
SBL N62C-a of Example 2 (aminoethyl side chain)	1000 µM	–
SBL S166C-S-CH2(CH2)8CH3	1090 µM	KM (suc-AAPA-pNA [4]): 1900 µM; kcat/KM (suc-AAPA-pNA [4]): 3600 M⁻¹ s⁻¹; kcat/KM [1]: 75000 M⁻¹ s⁻¹
SBL S156C-c of Example 1 (3,5-dicarboxybenzyl side chain)	1390 µM	–
SBL S156C-b of Example 2 (2-(trimethylammonium)ethyl side chain)	740 µM	–
SBL S156C-c of Example 2 (5,5-bis(aminomethyl)-3-oxo-hexyl side chain)	760 µM	–
SBL N62C-a of Example 1 (sulfonatoethyl side chain)	930 µM	–
SBL S166C-S-CH2C6H5	1170 µM	KM (suc-AAPA-pNA [4]): 800 µM; kcat/KM (suc-AAPA-pNA [4]): 9000 M⁻¹ s⁻¹; kcat/KM [1]: 20000 M⁻¹ s⁻¹
SBL N62C-e of Example 1 (3,3,4-tricarboxybutyl side chain)	1460 µM	–
SBL S156C-d of Example 1 (3,3-dicarboxybutyl side chain)	1670 µM	–
subtilisin Bacillus lentus, wild type (protein) AQSVPWGISRVQAPAAHNRGLTGSGVKVAVLDTGISTHPDLNIRGGASFVPGEPSTQDGNGHGTHVAGTIAALNNSIGVLGVAPSAELYAVKVLGASGSGSVSSIAQGLEWAGNNGMHVANLSLGSPSPSATLEQAVNSATSRGVLVVAASGNSGAGSISYPARYANAMAVGATDQNNNRASFSQYGAGLDIVAPGVNVQSTYPGSTYASLNGTSMATPHVAGAAALVKQKNPSWSNVQIRNHLKNTATSLGSTNLYGSGLVNAEAATR	–	KM [5]: 730 µM; kcat/KM [5]: 209000 M⁻¹ s⁻¹; KM (suc-AAPR-pNA [6]): 7200 µM; kcat/KM (suc-AAPR-pNA [6]): 22 M⁻¹ s⁻¹; KM (suc-AAPE-pNA [7]): 4400 µM; kcat/KM (suc-AAPE-pNA [7]): 400 M⁻¹ s⁻¹; KM (suc-AAPA-pNA [8]): 2000 µM; kcat/KM (suc-AAPA-pNA [8]): 8800 M⁻¹ s⁻¹
